The results in this text go back to publication PMC11965310, “Inhibition of tau neuronal internalization using anti-tau single domain antibodies” (Nature Communications, 2025).

What all share (settings): both partners purified
Experiment [1] deals with T1, tauMTBD (Homo sapiens, UniProt P10636, biotin (NHS-biotin, ratio 1:0.5) when immobilised in SPR; Atto488 NHS ester in the uptake assay).
T1 construct: also called tauMTBD fragment; source: E. coli BL21 (DE3), purified (heating at 75 °C, cation exchange)
Kind of experiment: SPR; biotinylated tau2N4R, tau1N4R or tauMTBD captured on a streptavidin (SA) chip; VHHs without tag as analytes, 0.0625-4 μM, single-cycle kinetics; 25 °C, HBS EP+; 1:1 Langmuir model. Background: Surface plasmon resonance follows binding to a sensor surface in real time, without labels.

Experiment [2] concerns the target T2, tau1N4R (Homo sapiens, UniProt P10636-7, biotin (NHS-biotin, 3 molar excess) when immobilised in SPR; Alexa Fluor 546 C5-maleimide on its two native cysteine residues in the uptake assay).
T2 construct: tau protein, isoform 1N4R; Used without a stated label as analyte on LRP1 cluster III; also called full-length tau1N4R; monomeric tau1N4R; source: E. coli BL21 (DE3), purified (heating at 75 °C, cation exchange)
The experiment is described as above.

Experiment [3] deals with T3, tau2N4R (Homo sapiens, UniProt P10636-8, biotin (NHS-biotin, 3 molar excess) when immobilised in SPR; 15N-labelled in NMR).
T3 construct: tau protein, isoform 2N4R, the largest tau isoform; Expressed from pET15b-tau2N4R; also called full-length tau2N4R; largest tau isoform; source: E. coli BL21 (DE3), purified (heating at 75 °C, cation exchange)
The description is as above.

The target in experiment [4] is T4, tau[369–381] C-terminal peptide (Homo sapiens).
T4 construct: also called tau-C-ter peptide; tau-Cter peptide
T4 chain: KKIETHKLTFREN
The experiment can be described thus: SPR; same data as the multi-cycle kinetics; steady-state analysis of maximum responses, one-site specific binding model.

Experiment [5] concerns the target T4, tau[369–381] C-terminal peptide. Described as above.
Experiment [6] shares this target. Kind of experiment: SPR; biotinylated VHH-Cys captured on SA chip; tau[369-381] peptide as analyte, multi-cycle kinetics; 25 °C, HBS EP+; kinetic analysis, 1:1 Langmuir model.
Experiment [7] has the same target. The experiment is described as above.
Experiment [8] has the same target. Kind of experiment: AlphaScreen or HTRF; 6His-VHH bound by anti-6His antibody-Terbium (1.5 nM) and 6His-VHH bound by anti-6His antibody-D2 (20 nM); tau-Cter peptide 32 nM to 100 µM; 1 h at room temperature. For orientation: Bead proximity is the source of the signal in Alpha formats.

T2 sequence (P10636 other isoform, or with tags, fused parts or gaps): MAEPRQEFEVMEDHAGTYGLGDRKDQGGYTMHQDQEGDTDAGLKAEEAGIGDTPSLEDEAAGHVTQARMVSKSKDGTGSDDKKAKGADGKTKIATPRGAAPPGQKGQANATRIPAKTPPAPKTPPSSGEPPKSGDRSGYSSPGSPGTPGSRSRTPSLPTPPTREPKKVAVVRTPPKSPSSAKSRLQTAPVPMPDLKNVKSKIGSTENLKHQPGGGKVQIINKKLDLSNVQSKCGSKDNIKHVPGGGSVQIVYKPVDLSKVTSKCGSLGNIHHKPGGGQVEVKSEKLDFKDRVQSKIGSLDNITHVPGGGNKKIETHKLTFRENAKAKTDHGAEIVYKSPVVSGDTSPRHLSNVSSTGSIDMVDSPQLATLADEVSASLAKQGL
T3 sequence (P10636 other isoform, or with tags, fused parts or gaps): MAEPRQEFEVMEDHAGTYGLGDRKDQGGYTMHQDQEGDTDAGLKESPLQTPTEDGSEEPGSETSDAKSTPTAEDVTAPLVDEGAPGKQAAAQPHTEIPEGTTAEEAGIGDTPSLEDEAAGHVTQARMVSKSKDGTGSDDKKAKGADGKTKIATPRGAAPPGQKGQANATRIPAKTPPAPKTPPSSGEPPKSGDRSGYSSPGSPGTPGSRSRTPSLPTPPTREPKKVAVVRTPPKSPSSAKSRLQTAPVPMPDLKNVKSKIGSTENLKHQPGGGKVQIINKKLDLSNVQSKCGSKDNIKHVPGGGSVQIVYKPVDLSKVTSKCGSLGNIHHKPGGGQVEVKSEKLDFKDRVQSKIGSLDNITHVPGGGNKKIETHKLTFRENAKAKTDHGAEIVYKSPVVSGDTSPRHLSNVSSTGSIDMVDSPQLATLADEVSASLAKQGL
T1 sequence (P10636 whole entry, looked up, the tested form may be a part): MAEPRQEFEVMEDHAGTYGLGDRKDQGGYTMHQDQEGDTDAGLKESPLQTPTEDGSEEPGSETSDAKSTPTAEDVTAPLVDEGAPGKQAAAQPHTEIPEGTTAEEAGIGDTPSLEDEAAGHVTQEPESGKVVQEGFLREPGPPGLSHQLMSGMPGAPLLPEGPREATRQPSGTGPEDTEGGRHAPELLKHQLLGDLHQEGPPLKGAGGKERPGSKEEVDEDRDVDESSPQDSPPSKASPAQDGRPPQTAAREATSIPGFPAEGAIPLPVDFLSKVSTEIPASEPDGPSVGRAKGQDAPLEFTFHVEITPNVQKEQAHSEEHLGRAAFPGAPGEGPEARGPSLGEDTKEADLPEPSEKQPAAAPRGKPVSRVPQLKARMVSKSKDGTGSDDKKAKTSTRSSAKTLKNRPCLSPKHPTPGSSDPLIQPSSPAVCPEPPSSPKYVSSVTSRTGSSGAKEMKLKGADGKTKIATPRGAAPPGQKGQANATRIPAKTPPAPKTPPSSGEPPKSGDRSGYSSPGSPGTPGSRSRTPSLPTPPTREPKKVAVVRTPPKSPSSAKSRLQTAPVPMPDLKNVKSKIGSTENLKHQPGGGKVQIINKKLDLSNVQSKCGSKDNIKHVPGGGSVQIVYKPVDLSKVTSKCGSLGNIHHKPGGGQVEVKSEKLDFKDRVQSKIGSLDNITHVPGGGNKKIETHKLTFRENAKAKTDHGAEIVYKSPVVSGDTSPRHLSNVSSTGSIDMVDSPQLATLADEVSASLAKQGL

B1: VHH E2-2 (VHH)
VHH: EVQLQASGGGFVQPGGSLRLSCAASGSTYDFDAMGWFRQAPGKEREFVSAISGDADLARYYADSVKGRFTISRDNSKNTVYLQMNSLRAEDTATYYCAAFRHEVHGSMRHEWEVIKYWGQGTQVTVSS
notes: From the Nali-H1 VHH library; source: E. coli periplasm, purified (IMAC, SEC, TEV cleavage, second IMAC); not shown: His6, N-terminal, cleaved
By Kd is commonly meant the constant that tells how readily two partners part at equilibrium. Lower therefore signals higher affinity. As a reminder, the koff is the rate constant with which the complex falls apart. A high value points to fast dissociation. Usually kon stands for the rate constant with which the complex forms. Read a low kon as slow association. As to B1, the binding result in experiment [1] is listed as “no binding (tested: 4 μM)”. In addition, in experiment [2], the Kd turned out to be 96 nM, the koff was determined as 0.0045 s⁻¹ and the kon came out at 46700 M⁻¹ s⁻¹. Further, in experiment [3], the Kd amounted to 84 nM, the koff was determined as 0.0038 s⁻¹ and the kon stood at 44900 M⁻¹ s⁻¹.

B2: biotinylated VHH E2-2 with a cysteine at the C-terminus (VHH)
VHH: EVQLQASGGGFVQPGGSLRLSCAASGSTYDFDAMGWFRQAPGKEREFVSAISGDADLARYYADSVKGRFTISRDNSKNTVYLQMNSLRAEDTATYYCAAFRHEVHGSMRHEWEVIKYWGQGTQVTVSS
notes: as the VHH chain of m11; additional C-terminal cysteine; source: E. coli periplasm, purified (IMAC, SEC, TEV cleavage, second IMAC); not shown: His6, N-terminal, cleaved
For orientation: stoichiometry N means the number of molecules, sites or subunits per partner or assembly. Molecule B2 displayed a Kd in experiment [4] of 518 to 820 nM. For the same molecule, in experiment [5], the Kd stood at 578 nM and the “stoichiometry N” value turned out to be 0.45. Moreover, in experiment [6], the affinity, expressed as Kd, was 820 nM; the dissociation rate constant (koff) is 0.124 s⁻¹; the on-rate (kon) was 154000 M⁻¹ s⁻¹.

B3: VHH H3-2 (VHH)
VHH: EVQLQASGGGFVQPGGSLRLSCAASGYTSGDEIMGWFRQAPGKEREFVSAISWQSGTSTYYADSVKGRFTISRDNSKNTVYLQMNSLRAEDTATYYCAPMTLAETYYEWLISGYWGQGTQVTVSS
notes: From the Nali-H1 VHH library; Forms a swapped dimer in the crystal and mostly a dimer in SEC at 20 µM; Coupled to 10 nm gold beads for electron microscopy; source: E. coli periplasm, purified (IMAC, SEC, TEV cleavage, second IMAC); not shown: His6, N-terminal, cleaved
For the molecule B3, the binding result in experiment [1] was “no binding (tested: 4 μM)”. In experiment [2], binding was put at a Kd of 11 nM, the koff turned out to be 0.006 s⁻¹ and the on-rate constant (kon) is 554000 M⁻¹ s⁻¹. In experiment [3], the Kd came to 8.9 nM, the off-rate (koff) was 0.0056 s⁻¹ and the kon stood at 630000 M⁻¹ s⁻¹.

B4: biotinylated VHH H3-2 with a cysteine at the C-terminus (VHH)
VHH: EVQLQASGGGFVQPGGSLRLSCAASGYTSGDEIMGWFRQAPGKEREFVSAISWQSGTSTYYADSVKGRFTISRDNSKNTVYLQMNSLRAEDTATYYCAPMTLAETYYEWLISGYWGQGTQVTVSS
notes: as the VHH chain of m8; additional C-terminal cysteine; source: E. coli periplasm, purified (IMAC, SEC, TEV cleavage, second IMAC); not shown: His6, N-terminal, cleaved
With B4, in experiment [5], the dissociation constant Kd is 297 nM and the “stoichiometry N” value worked out at 0.41. Also, the Kd in experiment [7] lay within 297 to 380 nM. In experiment [6], this molecule had a Kd of 280 nM, a koff of 0.071 s⁻¹ and a kon of 192000 M⁻¹ s⁻¹.

B5: 6His-VHH H3-2 (VHH)
VHH: EVQLQASGGGFVQPGGSLRLSCAASGYTSGDEIMGWFRQAPGKEREFVSAISWQSGTSTYYADSVKGRFTISRDNSKNTVYLQMNSLRAEDTATYYCAPMTLAETYYEWLISGYWGQGTQVTVSS
notes: as the VHH chain of m8; The construct has a TEV site between the 6-His tag and the VHH; also called 6Histag-H3-2; source: E. coli periplasm, purified; not shown: His6, N-terminal, kept
For orientation: EC50 means the concentration at which the effect is half-maximal. B5 showed a concentration for a half-maximal effect (EC50) in experiment [8] of 2700 nM.

B6: VHH F8-2 (VHH)
VHH: EVQLQASGGGFVQPGGSLRLSCAASGGTSYWDGMGWFRQAPGKEREFVSAISGRGNIGTYYADSVKGRFTISRDNSKNTVYLQMNSLRAEDTATYYCAAFRHEVHGSMRHEWEVIKYWGQGTQVTVSS
notes: source: E. coli periplasm, purified (IMAC, SEC, TEV cleavage, second IMAC); not shown: His6, N-terminal, cleaved
Consider B6, for which, in experiment [2], binding was characterised by a dissociation constant (Kd) of 740 nM, the koff worked out at 0.0425 s⁻¹ and the kon turned out to be 57500 M⁻¹ s⁻¹. In experiment [3], this molecule yielded a Kd of 753 nM, a koff of 0.04 s⁻¹ and a kon of 53100 M⁻¹ s⁻¹.
